Reference: CN112279913A (TAIZHOU BAIYING BIOLOGICAL TECH CO LTD, dated 2021)

B1: 抗人IL-6单克隆抗体 克隆019:8-3F8 (antibody, V domains shown)
VH: EVKLEESGGGLVQPGGSMKLSCAASGFTFSNYWMNWVRQSPEKGLEWVAEIRLRSNKYATHYAESVRGRFTISRDDSINYVYLQMNNLRAEDTGIYYCTRPRYEGTFDVWGAGTTVTVSS
VL: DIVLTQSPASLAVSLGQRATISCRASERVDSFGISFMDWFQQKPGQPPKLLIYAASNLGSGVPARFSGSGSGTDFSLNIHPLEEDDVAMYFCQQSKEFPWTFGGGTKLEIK
B2: 抗人IL-6单克隆抗体 克隆019:1-2H3 (antibody, V domains shown)
VH: QVQLQQSGPQLVRPGASVKISCKASGYSFNRSWMHWVKQRPGQGLEWIGMIDPSDTETRLNQKFKDKATLTVDESSSTAHMQFKRPTSEDSAVYYCARAYGFSIEFAYWGQGTLVTVSA
VL: DIQMSQTSSSLPASLGDRVTISCKASQDIRSYLNWYQQKPDGTVKLLIYYTSRLHSGVPSRFSGSGSGTDFSLTISNLEQEDIATYFCQQGATLPLTFGAGTKLELK

Target: T1, 人IL-6重组蛋白 (human, UniProt P05231 30-212, limits assumed)
T1 construct: also called 白细胞介素-6; 白介素6
Assay: indirect ELISA, IL-6 recombinant protein coated at 2 μg/ml, purified antibody from 10 μg/ml in 3-fold dilutions, HRP goat anti-mouse IgG

Binder	EC50 [µg/mL]
B1	< 0.025
B2	< 0.025
